Data reported in the supplement of paper PMC12764529.
± gives the half width of the 95% confidence interval.

Experiment: folding stability dG unfold from chymotrypsin proteolysis; higher = more stable
How it was run: (§1)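 Only designs with AlphaFold2 dimer inter-PAE above 15 were retained; each was a mini-protein under 80 residues with no cysteine, in a PA-tagged cDNA display construct. After digestion with trypsin and chymotrypsin and sequencing, K50 was inferred by Bayesian fitting of counts, and unfolding free energy was derived per protease or combined against a sequence-predicted unfolded-state K50 and a shared folded-state K50.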

Sequence	folding stability dG unfold [kcal/mol]
SAGGAVELRIVVRRTRPDPLTGRPVEEELTLTVPVDLDPERGVSAAEVARALAAALPDEVREVRAEPGSAGG [r13_335_TrMRF]	0.705 ± 0.08
SAGKEEAEKNKIAVLHLELYHPDGTKVSITIAFHPDKPEAVIEELTKLGYPLKDLIKNHPDLKILKIEPSAG [r5_430_TrMRF]	1.57 ± 0.044
SAGGSAGGSAGGMMKTTITITLPPNSSKEEAEKIKEEGLPAEEIVVEKNPDGTRVVTILESAGGSAGGSAGG [r11_97_JUSTAS]	0.657 ± 0.051
SAGGSAGGSMEIIGSFTFPNPNGMNIKVNVYRNPEEKKWWAKVEIWDGGKPKTHTMPLDDFLKSAGGSAGGS [r12_1063_TrROS]	2.06 ± 0.088
MTITVRFTFQTEEEAEKAAEEVKRKLAEELGLSEEVLKKIPVEVKRTETGSENGEPVYEVTVTFKLPEELLS [r1_81_JUSTAS]	4.94 ± 0.084
SAGGSAGGTAEELARKLEEALREAGYEVEKIEVVRVERKGDKVTIEVRVTLPDGRKLELRIELDSAGGSAGG [r6_839_TrROS_Hall]	3.22 ± 0.13
SPVVLPLTLGDRPILARLYPGEGVLEVRDPDGRLVGRATVTPNRINLVFRALDDDTTLVFELPVLPPDDPSA [r9_963_TrMRF]	1.82 ± 0.045
SAGGSAGGSAGGSMVITMTEEEIKALLPPGAKVKVEVVEDEETKEKFVRVEVYPAKEEESAGGSAGGSAGGS [r4_119_TrROS_Hall]	-0.429 ± 0.15
SAGATFKPGQTITVTVTVTVTVTNADGSTTTVTATVTVTLTVEPAPPLTFKTAEEAEAARKAGLSPEELSAG [r5_624_TrROS_Hall]	1.9 ± 0.076
SVPIALPGVPPGFSLEEVAALITEKIKALGYTLKDIKVTPHPDNTVTITITVEKGEKTVKKVTTEINPPVSA [r9_953_JUSTAS]	2.95 ± 0.097
SAGGSAGGWYVRITTNNGNQISIHLEELGLPEESFKEMTEEDLAEYLSKLFPGRPIKIEPVPLPSAGGSAGG [r6_165_TrROS]	3.35 ± 0.11
SAGGKKKVTIEIVYDPEEDYVLIRIRIKDPNGNEREITIRMSRDEIKKLLEELKGKITSIEVRRLPPSAGGS [r16_298_TrROS_Hall]	3.12 ± 0.059
SAGGGEYKVEVVTFPDGSKVVLVTLPNGDKVALPVPVTRTVPVLDKTGPLKKPGPVEVAALVLVSSNGSAGG [r13_236_TrMRF]	1.17 ± 0.12
SAGGSAGGSAGSTILIKNEDGSLLLVTVSDGSITIERLPPAPPPKTYEKDPETKEWREVTSAGGSAGGSAGG [r11_590_TrROS_Hall]	0.647 ± 0.063
SAGGSAGGSHEIIIRVDSPEDAIEQAKSILRDHGIPEGFEPVPIEVLERDPNNGYYYVQIEVKSAGGSAGGS [r12_999_TrROS]	-0.453 ± 0.077
SAGKKTITVEIVVENLTEEEIEEKIREKLKEAGLKVEVVKVEIVKVEEVDGKKYLVVKVEIKIEPEEESAGG [r19_325_TrROS_Hall]	2.87 ± 0.084

Experiment: folding stability dG unfold (combined trypsin and chymotrypsin); higher = more stable
How it was run: as §1

Sequence	folding stability dG unfold [kcal/mol]
SAGGSAGGSKKKYIIKVKIYNENGELVEEKEIEAESEEEALEALAKNPNISKEEITKIEVYELSAGGSAGGS [r12_182_TrROS_Hall]	2.19 ± 0.08
SAGGSAGGSMKPVVDSKADPTSGPEKTLTLTLGDETVTHTVSSSESLTIPLPPNSTVSFEPLGSAGGSAGGS [r12_373_JUSTAS]	1.03 ± 0.042
SAGGSKTLIIKIEKIEEFYPPFNNDKIKIPVSVYDPETGEKVLSNEEVAKILEKLFPGIKIGWEEGSAGGSA [r2_27_TrMRF]	0.937 ± 0.06
SMPEVETVTLTLTLVDEETGEEVTIEITATRVDGYLVLTMKVEVTVNGKKYTIEMTIVVKPGEEITLTLESA [r9_1015_TrROS_Hall]	> 6
SAGGSAGGSAGKKIIIKVKPNMTPEEIAKKLAEELGVEVEIKKVKKLKNGELYIEIEIKPSAGGSAGGSAGG [r17_222_TrROS_Hall]	2.82 ± 0.3
SAGGSAGGSAKTLTLTTPNGDKVEVKLYELPDDFVLAEIKVLATGEKFYALLTKDGTVYLASAGGSAGGSAG [r3_15_TrMRF]	3.06 ± 0.13
SAGGSAGGSAEKLLIVVEVDTPEQAEALAKALAALLPPGAKITVKPVEVDGKLYLVAEVELSAGGSAGGSAG [r3_92_TrROS_Hall]	3.75 ± 0.2
SAGPNFKIEIVPNPNGMEPIATIRPPGRTIVIYRNSNGGYHVQRFDPNNGKPVKQFNMPAEEIIKEILSAGG [r19_188_TrROS]	0.551 ± 0.19
SAGGMTVPIFVPVDSPEQVEEILEELATPDVKEIVPATLPPLPPPGDKMVVPINITIFPGTGKAVIDASAGG [r13_174_TrMRF]	0.492 ± 0.086
PAVPKEYTVTLPNATAKVTLEEYEDFVLATAEVTFPDGAKATVTVTLEPTPDGVKRTVTLNIPPGFGAKLGS [r1_153_TrMRF]	1.65 ± 0.06
SAGGMVEELDAKDADKIIVGADPDEEVFVLVEVYDDGELLEVVELEPGEEIEIPKDYKVKIVTVPKDLSAGG [r13_978_TrMRF]	-0.293 ± 0.52
SAGGSAGGSAGGKFKPGQTIKIKLKVKVKVNGKEYEFEKELEIKIKPKVTMSEEELKKKSAGGSAGGSAGGS [r10_175_TrROS_Hall]	1.39 ± 0.26
SAGASVSRPVSADEEFSVTVPPEPVTLEVTVYRPDGSVLSSRTIPVGPNTTVTLNVPDPDWSVSFSPVASAG [r5_797_JUSTAS]	0.232 ± 0.2
SDRFTATVEYPDTGKTETIELDPSHLSITVEFTGSATFRVTISYDVNGDTFTVEAEFTAPLAPVPPEAFLSA [r9_1067_TrMRF]	2.51 ± 0.11
SAGGSAGGSAGMKITVTITTTTTVSVEPPESSAAVGPVVYRQTLTLNLSPEEAAALLKKSSAGGSAGGSAGG [r17_283_JUSTAS]	1.25 ± 0.11
SAGGAVELRIVVRRTRPDPLTGRPVEEELTLTVPVDLDPERGVSAAEVARALAAALPDEVREVRAEPGSAGG [r13_335_TrMRF]	0.632 ± 0.12

Sequence	folding stability dG unfold [kcal/mol]
SAGKEEAEKNKIAVLHLELYHPDGTKVSITIAFHPDKPEAVIEELTKLGYPLKDLIKNHPDLKILKIEPSAG [r5_430_TrMRF]	1.71 ± 0.11
SAGGSAGGSAGGMMKTTITITLPPNSSKEEAEKIKEEGLPAEEIVVEKNPDGTRVVTILESAGGSAGGSAGG [r11_97_JUSTAS]	0.237 ± 0.15
SAGGSAGGSMEIIGSFTFPNPNGMNIKVNVYRNPEEKKWWAKVEIWDGGKPKTHTMPLDDFLKSAGGSAGGS [r12_1063_TrROS]	1.73 ± 0.1
MTITVRFTFQTEEEAEKAAEEVKRKLAEELGLSEEVLKKIPVEVKRTETGSENGEPVYEVTVTFKLPEELLS [r1_81_JUSTAS]	4.84 ± 0.084
SAGGSAGGTAEELARKLEEALREAGYEVEKIEVVRVERKGDKVTIEVRVTLPDGRKLELRIELDSAGGSAGG [r6_839_TrROS_Hall]	3.67 ± 0.21
SPVVLPLTLGDRPILARLYPGEGVLEVRDPDGRLVGRATVTPNRINLVFRALDDDTTLVFELPVLPPDDPSA [r9_963_TrMRF]	1.84 ± 0.12
SAGGSAGGSAGGSMVITMTEEEIKALLPPGAKVKVEVVEDEETKEKFVRVEVYPAKEEESAGGSAGGSAGGS [r4_119_TrROS_Hall]	0.0851 ± 0.21
SAGATFKPGQTITVTVTVTVTVTNADGSTTTVTATVTVTLTVEPAPPLTFKTAEEAEAARKAGLSPEELSAG [r5_624_TrROS_Hall]	1.84 ± 0.23
SVPIALPGVPPGFSLEEVAALITEKIKALGYTLKDIKVTPHPDNTVTITITVEKGEKTVKKVTTEINPPVSA [r9_953_JUSTAS]	2.56 ± 0.36
SAGGSAGGWYVRITTNNGNQISIHLEELGLPEESFKEMTEEDLAEYLSKLFPGRPIKIEPVPLPSAGGSAGG [r6_165_TrROS]	3.14 ± 0.14
SAGGKKKVTIEIVYDPEEDYVLIRIRIKDPNGNEREITIRMSRDEIKKLLEELKGKITSIEVRRLPPSAGGS [r16_298_TrROS_Hall]	3.14 ± 0.12
SAGGGEYKVEVVTFPDGSKVVLVTLPNGDKVALPVPVTRTVPVLDKTGPLKKPGPVEVAALVLVSSNGSAGG [r13_236_TrMRF]	0.956 ± 0.076
SAGGSAGGSAGSTILIKNEDGSLLLVTVSDGSITIERLPPAPPPKTYEKDPETKEWREVTSAGGSAGGSAGG [r11_590_TrROS_Hall]	0.878 ± 0.057
SAGGSAGGSHEIIIRVDSPEDAIEQAKSILRDHGIPEGFEPVPIEVLERDPNNGYYYVQIEVKSAGGSAGGS [r12_999_TrROS]	0.178 ± 0.1
SAGKKTITVEIVVENLTEEEIEEKIREKLKEAGLKVEVVKVEIVKVEEVDGKKYLVVKVEIKIEPEEESAGG [r19_325_TrROS_Hall]	3.06 ± 0.12
